Assay results as given in article PMC10397247.
One block for each binder: values may come before it.

What was measured:
4H2947-AA = molecular target: T1, 4H2947-AA; test: two-hybrid library CCmax; conditions: mean of both orientations;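 also: natural log of median RNA to DNA barcode read ratio; higher means stronger binding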
T1 chain: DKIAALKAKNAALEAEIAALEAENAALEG

4H235-AA = molecular target: T2, 4H235-AA; test: two-hybrid library CCmax; conditions: mean of both orientations;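 also: natural log of median RNA to DNA barcode read ratio; higher means stronger binding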
T2 chain: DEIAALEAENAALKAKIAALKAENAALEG

4H133-AA = molecular target: T3, 4H133-AA; test: two-hybrid library CCmax; conditions: mean of both orientations;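 also: natural log of median RNA to DNA barcode read ratio; higher means stronger binding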
T3 chain: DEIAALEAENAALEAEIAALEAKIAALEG

4H1449-AA = molecular target: T4, 4H1449-AA; test: two-hybrid library CCmax; conditions: mean of both orientations;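 also: natural log of median RNA to DNA barcode read ratio; higher means stronger binding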
T4 chain: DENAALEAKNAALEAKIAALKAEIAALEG

4H432-AA = molecular target: T5, 4H432-AA; test: two-hybrid library CCmax; conditions: mean of both orientations;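 also: natural log of median RNA to DNA barcode read ratio; higher means stronger binding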
T5 chain: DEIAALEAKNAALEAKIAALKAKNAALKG

4H2760-AA = molecular target: T6, 4H2760-AA; test: two-hybrid library CCmax; conditions: mean of both orientations;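 also: natural log of median RNA to DNA barcode read ratio; higher means stronger binding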
T6 chain: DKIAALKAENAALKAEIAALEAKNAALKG

4H1593-AA = molecular target: T7, 4H1593-AA; test: two-hybrid library CCmax; conditions: mean of both orientations
T7 chain: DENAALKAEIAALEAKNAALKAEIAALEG

4H2961-AA = molecular target: T8, 4H2961-AA; test: two-hybrid library CCmax; conditions: mean of both orientations
T8 chain: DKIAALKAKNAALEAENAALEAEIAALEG

4H1262-AA = molecular target: T9, 4H1262-AA; test: two-hybrid library CCmax
T9 chain: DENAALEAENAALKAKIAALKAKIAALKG

4H3915-AA = molecular target: T10, 4H3915-AA; test: two-hybrid library CCmax; conditions: mean of both orientations
T10 chain: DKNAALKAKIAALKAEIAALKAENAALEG

4H1384-AA = molecular target: T11, 4H1384-AA; test: two-hybrid library CCmax; conditions: mean of both orientations
T11 chain: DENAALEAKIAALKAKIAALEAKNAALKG

4H2580-AA = molecular target: T12, 4H2580-AA; test: two-hybrid library CCmax; conditions: mean of both orientations
T12 chain: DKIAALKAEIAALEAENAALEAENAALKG

4H1878-AA = molecular target: T13, 4H1878-AA; test: two-hybrid library CCmax; conditions: mean of both orientations
T13 chain: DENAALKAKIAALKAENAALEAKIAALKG

4H1349-AA = molecular target: T14, 4H1349-AA; test: two-hybrid library CCmax; conditions: mean of both orientations
T14 chain: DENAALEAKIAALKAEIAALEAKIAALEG

4H2604-AA = molecular target: T15, 4H2604-AA; test: two-hybrid library CCmax; conditions: mean of both orientations
T15 chain: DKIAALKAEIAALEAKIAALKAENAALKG

4H2621-AA = molecular target: T16, 4H2621-AA; test: two-hybrid library CCmax; conditions: mean of both orientations
T16 chain: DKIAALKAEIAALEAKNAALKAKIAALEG

4H446-AA = molecular target: T17, 4H446-AA; test: two-hybrid library CCmax; conditions: mean of both orientations
T17 chain: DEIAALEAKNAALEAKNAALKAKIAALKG

4H3974-AA = molecular target: T18, 4H3974-AA; test: two-hybrid library CCmax; conditions: mean of both orientations
T18 chain: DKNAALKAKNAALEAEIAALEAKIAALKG

4H3777-AA = molecular target: T19, 4H3777-AA; test: two-hybrid library CCmax; conditions: mean of both orientations
T19 chain: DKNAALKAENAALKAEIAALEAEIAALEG

4H3619-AA = molecular target: T20, 4H3619-AA; test: two-hybrid library CCmax; conditions: mean of both orientations
T20 chain: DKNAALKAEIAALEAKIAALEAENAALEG

4H3629-AA = molecular target: T21, 4H3629-AA; test: two-hybrid library CCmax; conditions: mean of both orientations
T21 chain: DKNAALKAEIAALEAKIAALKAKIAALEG

4H249-AA = molecular target: T22, 4H249-AA; test: two-hybrid library CCmax; conditions: mean of both orientations
T22 chain: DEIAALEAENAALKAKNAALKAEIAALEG

4H3094-AA = molecular target: T23, 4H3094-AA; test: two-hybrid library CCmax; conditions: mean of both orientations
T23 chain: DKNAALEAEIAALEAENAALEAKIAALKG

4H324-AA = molecular target: T24, 4H324-AA; test: two-hybrid library CCmax; conditions: mean of both orientations
T24 chain: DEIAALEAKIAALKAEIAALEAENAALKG

4H3049-AA = molecular target: T25, 4H3049-AA; test: two-hybrid library CCmax; conditions: mean of both orientations
T25 chain: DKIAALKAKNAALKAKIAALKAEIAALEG

4H3449-AA = molecular target: T26, 4H3449-AA; test: two-hybrid library CCmax; conditions: mean of both orientations
T26 chain: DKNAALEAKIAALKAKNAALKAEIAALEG

4H2903-AA = molecular target: T27, 4H2903-AA; test: two-hybrid library CCmax; conditions: mean of both orientations
T27 chain: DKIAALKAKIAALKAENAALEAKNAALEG

4H341-AA = molecular target: T28, 4H341-AA; test: two-hybrid library CCmax; conditions: mean of both orientations
T28 chain: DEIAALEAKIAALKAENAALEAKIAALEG

4H63-AA = molecular target: T29, 4H63-AA; test: two-hybrid library CCmax; conditions: mean of both orientations
T29 chain: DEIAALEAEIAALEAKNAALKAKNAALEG

4H380-AA = molecular target: T30, 4H380-AA; test: two-hybrid library CCmax; conditions: mean of both orientations
T30 chain: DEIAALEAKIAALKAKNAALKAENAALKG

4H2774-AA = molecular target: T31, 4H2774-AA; test: two-hybrid library CCmax; conditions: mean of both orientations
T31 chain: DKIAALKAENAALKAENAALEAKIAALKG

O7 = molecular target: T32, O7; test: two-hybrid library CCNG1
T32 chain: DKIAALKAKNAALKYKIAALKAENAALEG

O12 = molecular target: T33, O12; test: two-hybrid library CCNG1
T33 chain: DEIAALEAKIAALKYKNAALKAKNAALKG

O2 = molecular target: T34, O2; test: two-hybrid library CCNG1
T34 chain: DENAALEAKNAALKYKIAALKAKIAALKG

O1 = molecular target: T35, O1; test: two-hybrid library CCNG1
T35 chain: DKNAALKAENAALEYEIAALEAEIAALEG

O6 = molecular target: T36, O6; test: two-hybrid library CCNG1
T36 chain: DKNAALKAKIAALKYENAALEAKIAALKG

O16 = molecular target: T37, O16; test: two-hybrid library CCNG1
T37 chain: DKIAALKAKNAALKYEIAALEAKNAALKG

O10 = molecular target: T38, O10; test: two-hybrid library CCNG1
T38 chain: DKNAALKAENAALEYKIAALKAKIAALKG

O14 = molecular target: T39, O14; test: two-hybrid library CCNG1
T39 chain: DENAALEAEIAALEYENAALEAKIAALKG

O5 = molecular target: T40, O5; test: two-hybrid library CCNG1
T40 chain: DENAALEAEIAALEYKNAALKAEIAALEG

O15 = molecular target: T41, O15; test: two-hybrid library CCNG1
T41 chain: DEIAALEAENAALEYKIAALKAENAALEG

O11 = molecular target: T42, O11; test: two-hybrid library CCNG1
T42 chain: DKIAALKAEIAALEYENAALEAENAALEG

O3 = molecular target: T43, O3; test: two-hybrid library CCNG1
T43 chain: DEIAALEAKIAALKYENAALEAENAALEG

O13 = molecular target: T44, O13; test: two-hybrid library CCNG1
T44 chain: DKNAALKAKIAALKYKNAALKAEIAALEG

O9 = molecular target: T45, O9; test: two-hybrid library CCNG1
T45 chain: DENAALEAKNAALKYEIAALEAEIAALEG

O4 = molecular target: T46, O4; test: two-hybrid library CCNG1
T46 chain: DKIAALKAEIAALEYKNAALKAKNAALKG

O8 = molecular target: T47, O8; test: two-hybrid library CCNG1
T47 chain: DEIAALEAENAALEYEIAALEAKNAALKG

P5-AA-1HGe-W = molecular target: T48, P5-AA-1HGe-W; test: two-hybrid library CCmax; conditions: mean of both orientations
T48 chain: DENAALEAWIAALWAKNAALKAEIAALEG

P5-AA-1HGe-H = molecular target: T49, P5-AA-1HGe-H; test: two-hybrid library CCmax; conditions: mean of both orientations
T49 chain: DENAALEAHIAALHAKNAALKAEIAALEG

P5-AA-1HGe-Y = molecular target: T50, P5-AA-1HGe-Y; test: two-hybrid library CCmax; conditions: mean of both orientations
T50 chain: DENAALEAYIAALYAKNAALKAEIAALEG

P5-AA-1HGe-S = molecular target: T51, P5-AA-1HGe-S; test: two-hybrid library CCmax; conditions: mean of both orientations
T51 chain: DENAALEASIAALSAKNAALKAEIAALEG

P5-AA-1HGe-A = molecular target: T52, P5-AA-1HGe-A; test: two-hybrid library CCmax; conditions: mean of both orientations
T52 chain: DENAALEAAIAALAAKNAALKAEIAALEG

P9-AA = molecular target: T53, P9-AA; test: two-hybrid library CCmax; conditions: mean of both orientations
T53 chain: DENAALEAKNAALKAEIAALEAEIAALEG

P5-AA-1HGe-R = molecular target: T54, P5-AA-1HGe-R; test: two-hybrid library CCmax; conditions: mean of both orientations
T54 chain: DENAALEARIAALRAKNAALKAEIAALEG

P5-AA-1HGe-D = molecular target: T55, P5-AA-1HGe-D; test: two-hybrid library CCmax; conditions: mean of both orientations
T55 chain: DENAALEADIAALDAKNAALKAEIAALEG

O6-AA = molecular target: T56, O6-AA; test: two-hybrid library CCmax
T56 chain: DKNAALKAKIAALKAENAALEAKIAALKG

P5-AA-1HGe-M = molecular target: T57, P5-AA-1HGe-M; test: two-hybrid library CCmax; conditions: mean of both orientations
T57 chain: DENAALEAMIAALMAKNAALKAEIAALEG

O7-AA = molecular target: T58, O7-AA; test: two-hybrid library CCmax; conditions: mean of both orientations
T58 chain: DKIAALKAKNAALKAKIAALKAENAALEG

P10-AA = molecular target: T59, P10-AA; test: two-hybrid library CCmax; conditions: mean of both orientations
T59 chain: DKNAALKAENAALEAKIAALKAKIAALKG

O8-AA = molecular target: T60, O8-AA; test: two-hybrid library CCmax; conditions: mean of both orientations
T60 chain: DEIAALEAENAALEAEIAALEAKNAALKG

P5-AA-1HGe-T = molecular target: T61, P5-AA-1HGe-T; test: two-hybrid library CCmax; conditions: mean of both orientations
T61 chain: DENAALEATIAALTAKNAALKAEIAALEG

P5-AA-1HGe-Q = molecular target: T62, P5-AA-1HGe-Q; test: two-hybrid library CCmax; conditions: mean of both orientations
T62 chain: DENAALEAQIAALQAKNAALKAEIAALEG

interaction score (4H2947-AA): 0.251
interaction score (4H235-AA): -0.797
interaction score (4H133-AA): 1.64
interaction score (4H1449-AA): -0.611
interaction score (4H432-AA): -1.48
interaction score (4H2760-AA): 1.09
interaction score (4H1593-AA): -1.34
interaction score (4H2961-AA): -0.013
interaction score (4H1262-AA): 0.551
interaction score (4H3915-AA): -0.487
interaction score (4H1384-AA): -0.839
interaction score (4H2580-AA): -1.41
interaction score (4H1878-AA): -1.09
interaction score (4H1349-AA): 0.283
interaction score (4H2604-AA): -0.779
interaction score (4H2621-AA): -1.25
interaction score (4H446-AA): -1.67
interaction score (4H3974-AA): 1.62
interaction score (4H3777-AA): 2.49
interaction score (4H3619-AA): 1.07
interaction score (4H3629-AA): -0.649
interaction score (4H249-AA): -0.555
interaction score (4H3094-AA): -0.633
interaction score (4H324-AA): -1.15
interaction score (4H3049-AA): 1.23
interaction score (4H3449-AA): -0.766
interaction score (4H2903-AA): -1.83
interaction score (4H341-AA): -1.06
interaction score (4H63-AA): -0.668
interaction score (4H380-AA): -1.85
interaction score (4H2774-AA): 1.29
Binder: DENAALEAENAALKAKIAALKAKIAALKG [4H1262-AA]

interaction score (O7): -2.15
interaction score (O12): -2.35
interaction score (O2): 1.45
interaction score (O1): -2.12
interaction score (O6): -2.86
interaction score (O16): -2.54
interaction score (O10): -1.12
interaction score (O14): -2.4
interaction score (O5): -2.09
interaction score (O15): -2.03
interaction score (O11): -2.38
interaction score (O3): -2.08
interaction score (O13): -1.26
interaction score (O9): -1.83
interaction score (O4): -2.08
interaction score (O8): -2.46
Binder: DKNAALKAENAALEYEIAALEAEIAALEG [O1]

interaction score (P5-AA-1HGe-W): 1.75
interaction score (P5-AA-1HGe-H): 1.6
interaction score (P5-AA-1HGe-Y): 1.74
interaction score (P5-AA-1HGe-S): 1.69
interaction score (P5-AA-1HGe-A): 2.21
interaction score (P9-AA): -0.00244
interaction score (P5-AA-1HGe-R): 1.98
interaction score (P5-AA-1HGe-D): 1.7
interaction score (O6-AA): -0.782
interaction score (P5-AA-1HGe-M): 2.06
interaction score (O7-AA): -0.751
interaction score (P10-AA): -1.2
interaction score (O8-AA): 1.57
interaction score (P5-AA-1HGe-T): 2.12
interaction score (P5-AA-1HGe-Q): 2.25
Binder: DKNAALKAKIAALKAENAALEAKIAALKG [O6-AA]
